Assay results: patent US20170189508A1

Target: HLA-A*02 (human)
Assay: UV peptide exchange + b2m ELISA, exchange yield grade

Q: For SLTEVSLPL [… (SEQ ID NO: 45)], which peptide exchange yield is on record?
A: The peptide exchange yield was 50 to 75%.
